Reference: PMC3658131

What was measured:
Assay in all cases: ELISA
[1] = target: Bd-cys dimer (affinity-purified cysteine-terminated B-domain, largely dimers linked by a disulfide bond), unlabeled (Staphylococcus aureus)
[2] = target: FL-labeled Bd-cys dimer (disulfide-linked dimer of cysteine-terminated B-domain labelled with FITC) (Staphylococcus aureus)
[3] = target: Staphylococcus aureus protein A (SpA), wild type, full-length (Staphylococcus aureus) (UniProt P02976)
Sequence of UniProt P02976 (P02976 37-485): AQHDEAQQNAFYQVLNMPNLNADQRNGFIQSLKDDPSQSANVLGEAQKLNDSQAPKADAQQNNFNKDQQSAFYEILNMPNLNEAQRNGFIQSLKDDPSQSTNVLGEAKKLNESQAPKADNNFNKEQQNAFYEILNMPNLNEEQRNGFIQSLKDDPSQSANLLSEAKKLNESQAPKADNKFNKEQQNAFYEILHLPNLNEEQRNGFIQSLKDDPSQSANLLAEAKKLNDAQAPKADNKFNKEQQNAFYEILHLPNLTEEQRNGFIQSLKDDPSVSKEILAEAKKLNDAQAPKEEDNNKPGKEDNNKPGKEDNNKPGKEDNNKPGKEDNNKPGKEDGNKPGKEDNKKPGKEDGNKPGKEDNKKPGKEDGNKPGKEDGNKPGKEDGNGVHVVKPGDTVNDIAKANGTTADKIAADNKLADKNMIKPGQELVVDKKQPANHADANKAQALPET

Substance | net absorbance at 405 nm (net absorbance (405 nm)) [1] | net absorbance at 405 nm (net absorbance (405 nm)) [2] | net absorbance at 405 nm (net absorbance (405 nm)) [3]
HRP-conjugated rabbit IgG (antibody) | 0.98 | 0.21 | 1.25
HRP-conjugated guinea pig IgG (antibody) | 0.85 | 0.16 | 0.84
